Test results reported in patent publication US20230128344A1 (UNIVERSITY OF SOUTHERN CALIFORNIA, published 2023).

Biological target: T1, hCLL-1 on U937 human AML cells (human, UniProt Q5QGZ9 1-265)
T1 sequence (looked up): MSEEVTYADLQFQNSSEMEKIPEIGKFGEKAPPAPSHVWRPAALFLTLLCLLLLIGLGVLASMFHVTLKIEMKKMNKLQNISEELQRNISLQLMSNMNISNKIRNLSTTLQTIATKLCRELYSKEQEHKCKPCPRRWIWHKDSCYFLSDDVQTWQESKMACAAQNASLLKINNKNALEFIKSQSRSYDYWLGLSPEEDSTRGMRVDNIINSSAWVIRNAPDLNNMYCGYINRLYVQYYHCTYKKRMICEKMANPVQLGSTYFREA
Test: cell-based or functional assay

B1: DAR2-ARC-ADC (DAR2-ARC-IgG conjugated with 2'-Cl-araNAD+-MMAF) (antibody)
heavy: not shown
light: ENVLTQSPAIMSASPGEKVTMTCRASSNVISSYVHWYQQRSGASPKLWIYSTSNLASGVPARFSGSGSGTSYSLTISSVEAEDAATYYCQQYSGYPLTFGAGTKLELKRAAAAPSVFIFPPSDEQLKSGTASVVCLLNNFYPREAKVQWKVDNALQSGNSQESVTEQDSKDSTYSLSSTLTLSKADYEKHKVYACEVTHQGLSSPVTKSFNRGEC
modifications: 2'-Cl-arabinose-ADP-MMAF on Glu226 of the CD38 domain (CD38 numbering)
- in vitro cytotoxicity EC50 on U937 (CLL-1+) cells (MTT, 72 hours): 0.9 nM
